Data taken from patent publication US20090155164A1.
Like-named read-outs stand apart in the source and are kept apart here.

Assays:
[1] = biological target: T1, recombinant human CSF-1 (human) (UniProt P09603); experiment: cell-based or functional assay
T1 sequence (looked up): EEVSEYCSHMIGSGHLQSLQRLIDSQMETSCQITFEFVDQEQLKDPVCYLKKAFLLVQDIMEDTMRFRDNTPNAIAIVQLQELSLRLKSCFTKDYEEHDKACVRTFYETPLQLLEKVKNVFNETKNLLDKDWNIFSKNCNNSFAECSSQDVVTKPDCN

[2] = biological target: T1, recombinant human CSF-1 (human); experiment: cell-based or functional assay; remark: listed apart in the source

c-fms-Fc, human c-fms extracellular domain (residues 1-512) with a C-terminal human Fc domain, sequence (P07333 20-512): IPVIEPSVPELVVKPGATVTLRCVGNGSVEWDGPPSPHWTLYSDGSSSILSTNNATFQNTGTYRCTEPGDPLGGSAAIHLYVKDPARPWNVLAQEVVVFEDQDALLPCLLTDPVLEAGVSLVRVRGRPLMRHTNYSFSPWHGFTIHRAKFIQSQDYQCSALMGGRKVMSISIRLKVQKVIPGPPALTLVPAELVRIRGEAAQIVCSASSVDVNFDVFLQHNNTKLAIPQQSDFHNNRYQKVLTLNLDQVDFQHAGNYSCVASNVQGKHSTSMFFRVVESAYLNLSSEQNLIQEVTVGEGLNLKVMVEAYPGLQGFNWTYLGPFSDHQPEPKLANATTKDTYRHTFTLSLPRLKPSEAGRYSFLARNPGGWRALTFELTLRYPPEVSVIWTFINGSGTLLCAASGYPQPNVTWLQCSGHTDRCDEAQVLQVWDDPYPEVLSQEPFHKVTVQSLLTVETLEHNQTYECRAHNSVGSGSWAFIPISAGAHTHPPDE

AML-5 bioassay IC50 [1]: 0.21 nM
Cynomolgus bone marrow bioassay IC50 [1]: 0.617 nM
Human CD14+ monocytes bioassay IC50 [1]: 0.556 nM
AML-5 bioassay IC50 [2]: 0.034 µg/mL
Cynomolgus bone marrow bioassay IC50 [2]: 0.1 µg/mL
Human CD14+ monocytes bioassay IC50 [2]: 0.09 µg/mL
Substance: c-fms-Fc, human c-fms extracellular domain (residues 1-512) with a C-terminal human Fc domain (from UniProt P07333 20-512) (Fc fusion)
